{
  "source": "patent US20190010247A1",
  "about": "(MINOMIC INTERNATIONAL, published 2019)",
  "binders": {"B1": {"name": "murine MIL-38 monoclonal antibody, AM4 population, clone 1F5 (hybridoma CBA20140026) (antibody, mouse IgG1, kappa)", "heavy": "QIQLVQSGPELKKPGETVKISCKASGYAFTDYSMNWVKQAPGKGLRWMGWINTETGEPTYTDDFKGRFAFSLETSASTAFLQINNLRNEDTATYFCARHYDYGGFPYWGQGTLVTVSAAKTTPPSVYPLAPGSAAQTNSMVTLGCLVKGYFPEPVTVTWNSGSLSSGVHTFPAVLQSDLYTLSSSVTVPSSTWPSETVTCNVAHPASSTKVDKKIVPRDCGCKPCICTVPEVSSVFIFPPKPKDVLTITLTPKVTCVVVDISKDDPEVQFSWFVDDVEVHTAQTQPREEQFNSTFRSVSELPIMHQDWLNGKEFKCRVNSAAFPAPIEKTISKTKGRPKAPQVYTIPPPKEQMAKDKVSLTCMITDFFPEDITVEWQWNGQPAENYKNTQPIMDTDGSYFVYSKLNVQKSNWEAGNTFTCSVLHEGLHNHHTEKSLSHSPGK", "light": "DIQMTQSPASLSASVGETVTITCRASGNVHNYLAWYQQKQGKSPQLLVYTAKTLADGVPSRFSGSGSGTQYSLKINSLQPEDFGTYYCQHFWSNPWTFGGGTKLEIKRADAAPTVSIFPPSSEQLTSGGASVVCFLNNFYPKDINVKWKIDGSERQNGVLNSWTDQDSKDSTYSMSSTLTLTKDEYERHNSYTCEATHKTSTSPIVKSFNRNEC", "notes": "Mouse IgG1 kappa; Leader 1-19 (heavy) and 1-20 (light) are stated and left out; 1F5 is named an AM4 clone; also called AM4 MIL-38; AM4 1F5"}, "B2": {"name": "scFv MIL-38 (scFv)", "scFv": "QIQLVQSGPELKKPGETVKISCKASGYAFTDYSMNWVKQAPGKGLRWMGWINTETGEPTYTDDFKGRFAFSLETSASTAFLQINNLRNEDTATYFCARHYDYGGFPYWGQGTLVTVSSGGGGSGGGGSGGGGSDIQMTQSPASLSASVGETVTITCRASGNVHNYLAWYQQKQGKSPQLLVYTAKTLADGVPSRFSGSGSGTQYSLKINSLQPEDFGTYYCQHFWSNPWTFGGGTKLEIKHHHHHHC", "modifications": "CY5 fluorophor label (site not stated)", "notes": "VH (20-137), gly/ser linker (138-152), VL (153-259), hexa-His tag (260-265), C-terminal cysteine (266); Leader 1-19 is stated and left out; also called MIL-38 scFv; scFv MIL-38 construct"}, "B3": {"name": "chimeric MIL-38 antibody (mouse VH-human CH1-CH3 heavy chain, mouse VK-human CK light chain) (antibody)", "heavy": "not shown", "light": "DIQMTQSPASLSASVGETVTITCRASGNVHNYLAWYQQKQGKSPQLLVYTAKTLADGVPSRFSGSGSGTQYSLKINSLQPEDFGTYYCQHFWSNPWTFGGGTKLEIKRTVAAPSVFIFPPSDEQLKSGTASVVCLLNNFYPREAKVQWKVDNALQSGNSQESVTEQDSKDSTYSLSSTLTLSKADYEKHKVYACEVTHQGLSSPVTKSFNRGEC", "notes": "Human IgG1 kappa constant regions; also called chMIL-38; MIL-38 chimeric antibody"}, "B4": {"name": "chimeric MIL-38 DOTA conjugate (antibody, human IgG1, kappa)", "heavy": "not shown", "light": "DIQMTQSPASLSASVGETVTITCRASGNVHNYLAWYQQKQGKSPQLLVYTAKTLADGVPSRFSGSGSGTQYSLKINSLQPEDFGTYYCQHFWSNPWTFGGGTKLEIKRTVAAPSVFIFPPSDEQLKSGTASVVCLLNNFYPREAKVQWKVDNALQSGNSQESVTEQDSKDSTYSLSSTLTLSKADYEKHKVYACEVTHQGLSSPVTKSFNRGEC", "modifications": "p-SCN-Bn-DOTA conjugated; sites not stated; p-SCN-Bn-DOTA conjugated; 4.3, 4.6 or 7.5 DOTA per MAb for 5, 10 or 20 fold excess; sites not stated", "notes": "also called chMIL-38 DOTA; DOTA-cMIL-38"}},
  "key": {"[1]": {"target": "T1, recombinant human GPC-1 (NS0-produced glypican-1 antigen) (human, UniProt P35052 24-530)", "T1 construct": "Bought recombinant protein; also called recombinant NS0 GPC-1; NS0-produced recombinant GPC-1 antigen", "T1 sequence (looked up)": "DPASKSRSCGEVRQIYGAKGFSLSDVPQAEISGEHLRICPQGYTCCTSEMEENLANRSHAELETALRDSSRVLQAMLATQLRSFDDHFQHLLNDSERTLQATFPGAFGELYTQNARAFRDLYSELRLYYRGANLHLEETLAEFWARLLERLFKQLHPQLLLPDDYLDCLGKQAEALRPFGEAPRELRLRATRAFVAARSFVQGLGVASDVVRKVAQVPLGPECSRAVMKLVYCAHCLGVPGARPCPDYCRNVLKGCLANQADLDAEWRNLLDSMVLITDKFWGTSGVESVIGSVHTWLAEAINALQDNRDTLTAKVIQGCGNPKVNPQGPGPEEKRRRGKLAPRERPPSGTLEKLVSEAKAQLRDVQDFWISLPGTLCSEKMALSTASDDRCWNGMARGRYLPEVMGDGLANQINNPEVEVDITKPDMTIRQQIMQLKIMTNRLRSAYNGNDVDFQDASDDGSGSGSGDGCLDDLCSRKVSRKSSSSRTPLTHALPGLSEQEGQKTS", "experiment": "western blot, anti-mouse HRP detection", "procedure": "Briefly, after transfer membranes were blocked with 5% skim milk in PBS-Tween (0.1%) for 2 h at room temperature. Primary antibodies (1 μg/ml in 5% skim milk—PBS-Tween (0.1%) were applied and incubated overnight at 4° C. After washing (3×10 min PBS-Tween (0.1%)) membranes were incubated with secondary antibody (1:2000 sheep-anti-mouse HRP-labelled in 5% skim milk—PBS-Tween (0.1%)). After washing (3×10 min PBS-Tween (0.1%)) antigen was detected by using ECL detection kit (Biorad) and imaging with LAS4000 mini (GE Life Science)."}, "[2]": {"target": "T2, GPC-1 (MIL-38 antigen) expressed by human cancer cell lines DU-145, T-24, PANC-1 and MDA-MB-231 (human, UniProt P35052 24-530)", "T2 construct": "whole, on cells; also called GPC-1 on the cell surface", "T2 sequence (looked up)": "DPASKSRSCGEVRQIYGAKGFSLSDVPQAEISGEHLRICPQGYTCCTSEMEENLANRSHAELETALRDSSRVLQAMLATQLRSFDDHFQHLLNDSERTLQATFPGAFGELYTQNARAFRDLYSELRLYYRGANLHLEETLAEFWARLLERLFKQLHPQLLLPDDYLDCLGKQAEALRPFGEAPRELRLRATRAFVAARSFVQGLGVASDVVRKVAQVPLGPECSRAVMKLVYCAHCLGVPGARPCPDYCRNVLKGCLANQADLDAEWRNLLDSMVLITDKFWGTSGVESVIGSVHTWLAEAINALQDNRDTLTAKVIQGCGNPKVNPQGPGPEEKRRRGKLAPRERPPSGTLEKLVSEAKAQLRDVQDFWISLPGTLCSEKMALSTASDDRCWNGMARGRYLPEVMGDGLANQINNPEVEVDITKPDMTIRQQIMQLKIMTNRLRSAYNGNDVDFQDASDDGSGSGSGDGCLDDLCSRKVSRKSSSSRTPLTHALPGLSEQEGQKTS", "experiment": "binding to DU-145 cells, graded in Table 4"}, "[3]": {"target": "T2, GPC-1 (MIL-38 antigen) expressed by …", "experiment": "flow cytometry, CY5-labelled scFv on DU-145 cells"}, "[4]": {"target": "T1, recombinant human GPC-1 (NS0-produced …)", "experiment": "western blot, three-antibody detection"}, "[5]": {"target": "T2, GPC-1 (MIL-38 antigen) expressed by …", "experiment": "flow cytometry on DU-145 cells (FIG. 10)"}, "[6]": {"target": "T1, recombinant human GPC-1 (NS0-produced …)", "experiment": "direct binding ELISA, GPC-1 coated"}},
  "data": [
    {"binder": "B1", "values": [
      {"measurement": "binding result", "setting": "[1]", "result": "binds"},
      {"measurement": "binding result", "setting": "[2]", "result": "binds"}
    ]},
    {"binder": "B2", "values": [
      {"measurement": "binding result", "setting": "[3]", "result": "binds"}
    ]},
    {"binder": "B3", "values": [
      {"measurement": "binding result", "setting": "[2]", "result": "binds"},
      {"measurement": "binding result", "setting": "[4]", "result": "binds"}
    ]},
    {"binder": "B4", "values": [
      {"measurement": "binding result", "setting": "[5]", "result": "binds"},
      {"measurement": "binding result", "setting": "[6]", "result": "binds"}
    ]}
  ]
}
